According to patent publication US20240317859A1 (published 2024):
Changes are numbered by the printed parent chain.

T1: FcγRIIB/C (CD32b/c) (FcγRIIB) (R&D Systems) (UniProt P31994 46-217)
T1 chain: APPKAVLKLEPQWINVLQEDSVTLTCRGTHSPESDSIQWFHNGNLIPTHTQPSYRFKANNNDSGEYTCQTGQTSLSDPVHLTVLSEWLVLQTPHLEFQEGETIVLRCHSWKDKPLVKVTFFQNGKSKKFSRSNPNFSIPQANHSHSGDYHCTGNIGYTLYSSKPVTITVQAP

B1: X4-K HM297-H5 (antibody)
chain 1: QVQLVQSGPEVKKPGASVKIPCKASGYTFTDYNVDWVRQVPGQGLEWMGDIDPNNGGTIYNQKFKDRVTMTVDKSTRTAYMELRSLRSDDTAVYYCARWRGAMDYWGQGTLVTVSSASTKGPSVFPLAPSSKSTSGGTAALGCLVKDYFPEPVTVSWNSGALTSGVHTFPAVLQSSGLYSLSSVVTVPSSSLGTQTYICNVNHKPSNTKVDKKVEPKSCDKTHTCPPCPAPELLGGPDVFLFPPKPKDTLMISRTPEVTCVVVDVSDEDPEVKFNWYVDGVEVHNAKTKPREEQYNSTYRVVSVLTVLHQDWLNGKEYKCAVSNKAYPAPEEKTISKAKGQPREPQVYTLPPSRDELTKNQVSLTCLVKGFYPSDIAVEWESNGQPENNYKTTPPVLDSDGSFFLYSKLTVDKSRWQQGNVFSCSVMHEALHNHYTQKSLSLSPGK
chain 2: DIQMTQSPSSLSASVGDRVTITCRASQDIDNYLKWYQQKPDGTVKLLIYDTSRLHSGVPSRFSGSGSGTDYTLTISSLKQEDFATYYCQQGYTLPWTFGQGTKLEIKRTVAAPSVFIFPPSDEQLKSGTASVVCLLNNFYPREAKVQWKVDNALQSGNSQESVTEQDSKDSTYSLSSTLTLSKADYEKHKVYACEVTHQGLSSPVTKSFNRGEC
B2: X4-K HM268-K8 (antibody)
chain 1: QVQLVQSGPEVKKPGASVKVVCKTSGYTFTSYYIQWLKQRPGQGLEWIGWIYFGDASTKYNEKFKGRVTMTADKSTSTAYMELRSLRSDDTAVYYCASYYGSYFDYWGQGTTVTVSSASTKGPSVFPLAPSSKSTSGGTAALGCLVKDYFPEPVTVSWNSGALTSGVHTFPAVLQSSGLYSLSSVVTVPSSSLGTQTYICNVNHKPSNTKVDKKVEPKSCDKTHTCPPCPAPELLGGPDVFLFPPKPKDTLMISRTPEVTCVVVDVSDEDPEVKFNWYVDGVEVHNAKTKPREEQYNSTYRVVSVLTVLHQDWLNGKEYKCAVSNKAYPAPEEKTISKAKGQPREPQVYTLPPSRDELTKNQVSLTCLVKGFYPSDIAVEWESNGQPENNYKTTPPVLDSDGSFFLYSKLTVDKSRWQQGNVFSCSVMHEALHNHYTQKSLSLSPGK
chain 2: B1 chain 2 with D30S, K34N, D50S, K79Q, Q80P, Y92S, W96F
B3: X2-K HM268-K8 (antibody)
chain 1: B2 chain 1 with G236D, D239S, Y328L, E332I
chain 2: B1 chain 2 with D30S, K34N, D50S, K79Q, Q80P, Y92S, W96F
B4: X3-KS HM297-H5 (antibody)
chain 1: B1 chain 1 with S266G, Y327L, E331I
chain 2: B1 chain 2
B5: X2-K HM297-H5 (antibody)
chain 1: B1 chain 1 with G235D, D238S, Y327L, E331I
chain 2: B1 chain 2
B6: X3-KS HM268-K8 (antibody)
chain 1: B2 chain 1 with S267G, Y328L, E332I
chain 2: B1 chain 2 with D30S, K34N, D50S, K79Q, Q80P, Y92S, W96F
B7: X2-K HM242-D3 (antibody)
chain 1: QVQLVQSGPEVKKPGASVKVVCKASGYTFTSYYIQWVRQVPGQGLEWMGWIYPGDGTTKYNEKFKGRVTMTIDTSTSTAYMELRSLRSDDTAVYYCASYYGSYFDYWGQGTLVTVSSASTKGPSVFPLAPSSKSTSGGTAALGCLVKDYFPEPVTVSWNSGALTSGVHTFPAVLQSSGLYSLSSVVTVPSSSLGTQTYICNVNHKPSNTKVDKKVEPKSCDKTHTCPPCPAPELLDGPSVFLFPPKPKDTLMISRTPEVTCVVVDVSDEDPEVKFNWYVDGVEVHNAKTKPREEQYNSTYRVVSVLTVLHQDWLNGKEYKCAVSNKALPAPIEKTISKAKGQPREPQVYTLPPSRDELTKNQVSLTCLVKGFYPSDIAVEWESNGQPENNYKTTPPVLDSDGSFFLYSKLTVDKSRWQQGNVFSCSVMHEALHNHYTQKSLSLSPGK
chain 2: not shown
B8: X4-K HM242-D3 (antibody)
chain 1: B7 chain 1 with D236G, S239D, L328Y, I332E
chain 2: not shown
B9: X2-K HM242-C3 (antibody)
chain 1: B7 chain 1 with R38K, V40R, M48I, T74K, S77R
chain 2: not shown
B10: X3-KS HM242-D3 (antibody)
chain 1: B7 chain 1 with D236G, S239D, S267G
chain 2: not shown
B11: X4-K HM242-C3 (antibody)
chain 1: B2 chain 1 with T24A, L37V, F53P, A56G, S57T, A72I, S77R, T112L
chain 2: not shown
B12: X3-KS HM242-C3 (antibody)
chain 1: B7 chain 1 with R38K, V40R, M48I, T74K, S77R, D236G, S239D, S267G
chain 2: not shown
B13: X3-KS-DF HM297-H5 (antibody)
chain 1: B1 chain 1 with S266G, Y327L, E331I
chain 2: B1 chain 2
B14: X3-KS-DF HM242-C3 (antibody)
chain 1: B7 chain 1 with R38K, V40R, M48I, T74K, S77R, D236G, S239D, S267G
chain 2: not shown
B15: X2-K-DF HM242-C3 (antibody)
chain 1: B7 chain 1 with R38K, V40R, M48I, T74K, S77R
chain 2: not shown
B16: X3-KS-DF HM242-D3 (antibody)
chain 1: B7 chain 1 with D236G, S239D, S267G
chain 2: not shown

Molecular target: T1, FcγRIIB/C (CD32b/c) (FcγRIIB) (R&D …)
Assay: SPR

Kd | Binder
1.25 µM | B1
1.05 µM | B2
1.65 µM | B3
1.43 µM | B4
1.29 µM | B5
2.54 µM | B6
1.25 µM | B7
0.957 µM | B8
1.21 µM | B9
2.74 µM | B10
0.606 µM | B11
1.66 µM | B12

molecular target: Fc gamma RIIIA/CD16a, CF (FcγRIIIA(V158)) (R&D Systems); assay: SPR
Sequence (chain, as listed by the source): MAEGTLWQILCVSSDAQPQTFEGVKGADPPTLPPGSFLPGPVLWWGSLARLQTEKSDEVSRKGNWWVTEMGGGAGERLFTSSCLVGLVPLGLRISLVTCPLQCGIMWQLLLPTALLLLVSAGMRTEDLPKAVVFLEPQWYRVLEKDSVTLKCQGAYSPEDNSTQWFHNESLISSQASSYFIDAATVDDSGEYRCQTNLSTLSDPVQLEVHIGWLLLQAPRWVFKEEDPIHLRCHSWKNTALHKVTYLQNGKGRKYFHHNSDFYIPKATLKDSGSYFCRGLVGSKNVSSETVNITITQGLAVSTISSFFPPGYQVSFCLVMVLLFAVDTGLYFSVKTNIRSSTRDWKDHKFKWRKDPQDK

Kd | Binder
3.03 µM | B1
0.236 µM | B2
7.56 µM | B3
5.22 µM | B5
4.27 µM | B7
0.244 µM | B8
0.143 µM | B11

Molecular target: T1, FcγRIIB/C (CD32b/c) (FcγRIIB) (R&D …)
Assay: SPR
Remark: another data set of the same source

Kd | Binder
1.22 µM | B13
1.17 µM | B14
1.02 µM | B15
2.54 µM | B16
